# Laboratory results: paper PMC10412574, “Auranofin targets UBA1 and enhances UBA1 activity by facilitating ubiquitin trans-thioesterification to E2 ubiquitin-conjugating enzymes” (Nature Communications, 2023)
# T1: recombinant UBE2G2 (UniProt P60604 1-165)
# T1 construct: UBE2G2, ubiquitin-conjugating enzyme E2 G2, recombinant; Called His-UBE2G2 only in the charging assays; no tag is named for the pull-downs; also called His-UBE2G2; source: bought: R&D Systems (E2-680-100)
# T1 sequence: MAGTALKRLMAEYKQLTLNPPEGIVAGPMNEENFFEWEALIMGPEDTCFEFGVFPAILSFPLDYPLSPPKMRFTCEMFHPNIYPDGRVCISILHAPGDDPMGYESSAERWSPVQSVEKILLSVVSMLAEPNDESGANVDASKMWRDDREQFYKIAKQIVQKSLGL
# T2: recombinant UBE2K (UniProt P61086 1-200)
# T2 construct: UBE2K, ubiquitin-conjugating enzyme E2 K, recombinant; source: bought: R&D Systems (NBP2-35096)
# T2 sequence (looked up): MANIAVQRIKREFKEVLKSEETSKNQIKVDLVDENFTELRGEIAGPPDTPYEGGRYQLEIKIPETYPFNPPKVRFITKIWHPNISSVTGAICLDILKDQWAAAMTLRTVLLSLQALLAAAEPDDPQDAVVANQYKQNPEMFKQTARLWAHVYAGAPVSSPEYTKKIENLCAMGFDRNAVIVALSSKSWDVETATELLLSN
# B1: MBP-UFD (C1039A) (domain or fragment)
# chain: not shown
# notes: UBA1 ubiquitin fold domain (UFD), aa942-1058, with C1039A; also called MBP-UFD with cysteine mutation; source: recombinant
# B2: MBP-UFD (C1040A) (domain or fragment)
# chain: not shown
# notes: UBA1 ubiquitin fold domain (UFD), aa942-1058, with C1040A; also called MBP-UFD with cysteine mutation; source: recombinant
# B3: MBP-UFD (942-1058) (domain or fragment)
# chain: not shown
# notes: UBA1 C-terminal ubiquitin fold domain (UFD), aa942-1058; The pull-down methods name the construct 'AAD-UFD'; also called UFD fragment of UBA1
# Experiments:
# recombinant UBE2G2 = target: T1, recombinant UBE2G2; assay: pull-down; MBP fusions of UBA1 fragments (5 ug) on beads, treated with AF 1.5 h and washed, then incubated with recombinant E2 2 h at room temperature in 150 mM NaCl, 10 mM Tris/HCl pH 7.4, 1 mM EDTA, 1 mM EGTA, 0.2% NP-40; immunoblot; in Fig. 2a also after iodoacetamide or with DTT; conditions: both partners purified
# recombinant UBE2K = target: T2, recombinant UBE2K; assay: as above; conditions: both partners purified
binder,measurement,setting,value
B1,binding result,recombinant UBE2G2,binds
B2,binding result,recombinant UBE2G2,binds
B3,binding result,recombinant UBE2K,binds
same,binding result,recombinant UBE2G2,binds
